From US20110165624A1 (REGENTS OF THEUNIVERSITY OF MICHIGAN, published 2011) come the findings set out here.

The data set concerns the molecule itself. Nature of the data set: size exclusion chromatography, Superdex 75, non-denaturing; self-association (dimerization). For orientation: Size exclusion chromatography separates by hydrodynamic size, large species first.

B1: Mocr protein (monomeric Ocr, F53R and V77D) as produced from the pMCSG7 vector (pMocr) (other)
chain: MHHHHHHSSGVDLAMSNMTYNNVFDHAYEMLKENIRYDDIRDTDDLHDAIHMAADNAVPHYYADIRSVMASEGIDLEFEDSGLMPDTKDDIRILQARIYEQLTIDLWEDAEDLLNEYLEEVEEYEEDEEGTENLYFQSNICSG
notes: […]; The predicted molecular weight is 16.7 kDa; also called synthetic Mocr
With B1, the binding result is “no binding”.
